As a reminder, the EC50 is the concentration at which the effect is half-maximal.

Test [1] addresses T1, human LILRB4 (human, UniProt Q8NHJ6 22-448). Kind of test: ELISA; panel B. For orientation: In an ELISA, binding on a coated surface is turned into a signal by an enzyme label.
The target in test [2] is T1, human LILRB4. Kind of test: competitive FACS; competition with h2-H1-D7-E5-D5.
Test [3] addresses T1, human LILRB4. Kind of test: FACS. For orientation: In flow cytometry, cells or beads pass a laser one at a time.
Test [4] has as its target T1, human LILRB4. Kind of test: ELISA; panel A.
The target in test [5] is T1, human LILRB4. Kind of test: competitive FACS; competition with NGM831.

T1 sequence (Q8NHJ6 22-448): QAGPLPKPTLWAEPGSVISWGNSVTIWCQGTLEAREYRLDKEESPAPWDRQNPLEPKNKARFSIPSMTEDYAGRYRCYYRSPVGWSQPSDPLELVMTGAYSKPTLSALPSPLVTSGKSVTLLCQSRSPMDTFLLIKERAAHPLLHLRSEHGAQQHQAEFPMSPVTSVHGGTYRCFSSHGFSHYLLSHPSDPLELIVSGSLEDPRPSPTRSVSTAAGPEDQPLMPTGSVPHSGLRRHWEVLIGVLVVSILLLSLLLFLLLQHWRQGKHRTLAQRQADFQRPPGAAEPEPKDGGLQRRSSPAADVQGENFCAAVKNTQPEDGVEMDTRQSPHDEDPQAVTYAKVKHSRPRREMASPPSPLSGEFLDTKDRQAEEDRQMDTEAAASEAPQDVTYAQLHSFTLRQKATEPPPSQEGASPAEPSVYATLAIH

B1: h8-B3-F6-H8 (antibody, V domains shown)
VH: EVQLVESGGGLVQPGGSLRLSCAASGFDFSRYWMSWVRQAPGKGLVWIGEINPESSAINYAPSLKDRFTISRDNAKNTLYLQMNSLRAEDTAVYYCATSMTMDYWGQGTLVTVSS
VL: DIQMTQSPSSLSASVGDRVTITCKASQDIKSYLSWYQQKPGKAPKTLIYYATSLAGGVPSRFSGSGSGTDYTLTISSLQPEDFATYYCLQHGESPYTFGGGTKLEIK
On to B1, for which the EC50 with human LILRB4 [1] was determined as 0.0286 nM; with human LILRB4 [2], 6.33 nM.

B2: NGM831 (antibody, V domains shown)
VH: EVQLQQSGPEVKPGASVKISCKASGYTFTDYNMDWVKQSHGKSEWIGYIYPSNGGTGYNQKFKSKATLTVDKSSNTAYMELHSLTSEDSAVYYCARVPYYDYLYYYAMDYWGQGTSVTVSS
VL: QIVLSQSPAILSASPGEKVTMACRASSSVSFMHWYQQKPGSSPQPWIYATSNLASGVPARFSGSGSGTSYSLTISRVEAEDAATYYCQQWSTNPYMYTFGGGTKLEIK
Regarding B2, the EC50 worked out at 0.849 nM with human LILRB4 [3], 0.0372 nM with human LILRB4 [4], 0.0265 nM in the test with human LILRB4 [1] and 3.67 nM with human LILRB4 [5].

B3: ch2-H1-D7-E5-D5 (antibody, V domains shown)
VH: EVHLVESGGGLVQPGGSRKLSCAASGFTFSSFGMHWVRQPPEKGLEWVAYISSGSSSIYYADTVKGRFTISRDNPKNTLFLQMTSLRSEDTAMYYCARGTGTGAMDYWGQGTSVTVSS
VL: DIQMTQTTSSLSASLGDRVTISCRTSQDISNYLNWYQQKPDGTVKLLIYYTSKLHSGVPSRFSGSGSGTDYSLTISNLDQEDIATYFCQQGNTLPWTFGGGTKLEIK
For B3, the concentration for a half-maximal effect (EC50) with human LILRB4 [4] was 1.12 nM. This counts as single-digit nanomolar.

B4: IO-202 (antibody, V domains shown)
VH: EVQLLESGGGLVQPGGSLRLSCAASGIDFSNHYYMYWVRQAPGKGLEWIGSIFSGDSASTYYADSAKGRFTISRDNSKNTLYLQMNSLRAEDTAVYYCARGMSTNDWASDLWGQGTLVTVSS
VL: DIQMTQSPSSLSASVGDRVTITCQASESINSIYLAWYQQKPGKAPKLLIYRASTLASGVPSRFSGSGSGTDFTLTISSLQPEDFATYYCQQSYDWGDVENTFGGGTKVEIK
B4: the values for the EC50 in the test with human LILRB4 [4] and with human LILRB4 [1] were 0.0172 nM and 0.0141 nM, respectively.

B5: h2-H1-D7-E5-D5 (antibody, V domains shown)
VH: EVQLVESGGGLVQPGGSLRLSCAASGFTFSSFGMHWVRQAPGKGLEWVAYISSGSSSIYYADTVKGRFTISRDNAKNSLYLQMNSLRAEDTAVYYCARGTGTGAMDYWGQGTLVTVSS
VL: DIQMTQSPSSLSASVGDRVTITCRTSQDISNYLNWYQQKPGKAPKLLIYYTSKLHSGVPSRFSGSGSGTDFTFTISSLQPEDIATYFCQQGNTLPWTFGGGTKLEIK
B5 came in with an EC50 in the test with human LILRB4 [4] of 7.96 nM.

B6: ch8-B3-F6-H8 (antibody, V domains shown)
VH: EVKVIESGGGLVQPGGSLKLSCAASGFDFSRYWMSWVRQAPGKGLEWIGEINPDSSAINYTPSLKDKFIISRDNAKNTLYLQMSKVRSEDTALYYCATSMTMDYWGQGTSVTVSS
VL: DIVMTQSPSSMYASLGERVTITCKASQDIKSYLSWYQQKPWKSPKTLIYYATSLADGVPSRFSGSGSGQDYSLTISSLESDDTATYYCLQHGESPYTFGGGTKLEK
As to B6, the EC50 in the test with human LILRB4 [3] worked out at 1.49 nM; with human LILRB4 [1], 0.0317 nM.
